Reference: patent publication US20190134153A1, “IMMUNOMODULATORY EFFECT OF INHALED KINASE INHIBITOR PEPTIDES IN LUNG” (MOERAE MATRIX, INC., priority 2017, published 2019)

What was measured:
Test in all cases: Kinase Profiling Assay
Type in all cases: biochemical
Settings in all cases: 100 μM
MST3(h) = MST3(h) (Homo sapiens, UniProt Q9Y6E0)
PKCι(h) = biological target: T1, PKCι(h) (Homo sapiens, UniProt P41743)
T1 sequence (P41743 1-596): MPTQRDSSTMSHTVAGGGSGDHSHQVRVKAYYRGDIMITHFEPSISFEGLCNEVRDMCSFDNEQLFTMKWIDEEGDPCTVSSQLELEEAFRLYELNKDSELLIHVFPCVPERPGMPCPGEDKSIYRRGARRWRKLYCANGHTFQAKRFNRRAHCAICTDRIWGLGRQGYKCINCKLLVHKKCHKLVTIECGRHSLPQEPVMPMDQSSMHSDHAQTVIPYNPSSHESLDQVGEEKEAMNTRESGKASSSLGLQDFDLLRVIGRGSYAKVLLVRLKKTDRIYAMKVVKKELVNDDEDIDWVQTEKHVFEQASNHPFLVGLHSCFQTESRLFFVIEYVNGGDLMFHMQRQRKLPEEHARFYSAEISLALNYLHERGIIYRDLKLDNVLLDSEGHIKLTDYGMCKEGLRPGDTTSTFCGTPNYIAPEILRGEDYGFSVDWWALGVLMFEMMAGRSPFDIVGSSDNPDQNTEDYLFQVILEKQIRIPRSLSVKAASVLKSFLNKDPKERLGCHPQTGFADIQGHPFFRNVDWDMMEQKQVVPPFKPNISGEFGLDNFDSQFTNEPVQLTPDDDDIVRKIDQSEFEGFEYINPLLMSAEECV

CDK6/cyclinD3(h) = CDK6/cyclinD3(h) (Homo sapiens, UniProt Q00534)
CK2(h) = CK2(h) (Homo sapiens, UniProt P68400)
mTOR/FKBP12(h) = mTOR/FKBP12(h) (Homo sapiens, UniProt P42345)
Fms(h) = Fms(h) (Homo sapiens, UniProt P07333)
DRAK1(h) = biological target: T2, DRAK1(h) (Homo sapiens, UniProt Q9UEE5)
T2 sequence (Q9UEE5 1-414): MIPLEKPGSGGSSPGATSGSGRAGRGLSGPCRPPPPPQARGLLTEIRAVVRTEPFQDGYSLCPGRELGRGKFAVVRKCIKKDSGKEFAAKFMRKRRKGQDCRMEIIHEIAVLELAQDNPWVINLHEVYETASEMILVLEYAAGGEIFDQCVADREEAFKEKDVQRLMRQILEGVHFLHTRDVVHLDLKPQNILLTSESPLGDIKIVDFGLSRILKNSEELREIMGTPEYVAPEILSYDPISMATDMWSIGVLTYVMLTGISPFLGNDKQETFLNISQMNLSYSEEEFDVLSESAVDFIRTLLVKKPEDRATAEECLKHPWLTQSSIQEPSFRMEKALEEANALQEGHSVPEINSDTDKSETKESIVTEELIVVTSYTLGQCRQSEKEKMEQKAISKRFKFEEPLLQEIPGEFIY

PKCα(h) = PKCα(h) (Homo sapiens, UniProt P17252)
SAPK3(h) = biological target: T3, SAPK3(h) (Homo sapiens, UniProt P53778)
T3 sequence (P53778 1-367): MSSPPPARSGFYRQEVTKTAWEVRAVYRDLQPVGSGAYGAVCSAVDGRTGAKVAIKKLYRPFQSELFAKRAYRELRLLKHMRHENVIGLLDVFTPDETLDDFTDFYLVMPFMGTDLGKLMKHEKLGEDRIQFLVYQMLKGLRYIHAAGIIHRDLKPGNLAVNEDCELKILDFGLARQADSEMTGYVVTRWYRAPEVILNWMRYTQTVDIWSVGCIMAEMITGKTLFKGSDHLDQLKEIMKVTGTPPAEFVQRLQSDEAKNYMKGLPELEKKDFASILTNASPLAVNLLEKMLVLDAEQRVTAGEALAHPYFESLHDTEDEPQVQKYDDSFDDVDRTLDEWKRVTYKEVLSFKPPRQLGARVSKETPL

MSK1(h) = MSK1(h) (Homo sapiens, UniProt O75582)
Met(D1246H)(h) = Met(D1246H)(h) (Homo sapiens, UniProt P08581, D1228H)
EphA7(h) = EphA7(h) (Homo sapiens, UniProt Q15375)
AMPKα1(h) = AMPKα1(h) (Homo sapiens, UniProt Q13131)
Fms(Y969C)(h) = Fms(Y969C)(h) (Homo sapiens, UniProt P07333, Y969C)
WNK2(h) = WNK2(h) (Homo sapiens, UniProt Q9Y3S1)
PKCη(h) = PKCη(h) (Homo sapiens, UniProt P24723)
NLK(h) = biological target: T4, NLK(h) (Homo sapiens, UniProt Q9UBE8)
T4 sequence (Q9UBE8 1-527): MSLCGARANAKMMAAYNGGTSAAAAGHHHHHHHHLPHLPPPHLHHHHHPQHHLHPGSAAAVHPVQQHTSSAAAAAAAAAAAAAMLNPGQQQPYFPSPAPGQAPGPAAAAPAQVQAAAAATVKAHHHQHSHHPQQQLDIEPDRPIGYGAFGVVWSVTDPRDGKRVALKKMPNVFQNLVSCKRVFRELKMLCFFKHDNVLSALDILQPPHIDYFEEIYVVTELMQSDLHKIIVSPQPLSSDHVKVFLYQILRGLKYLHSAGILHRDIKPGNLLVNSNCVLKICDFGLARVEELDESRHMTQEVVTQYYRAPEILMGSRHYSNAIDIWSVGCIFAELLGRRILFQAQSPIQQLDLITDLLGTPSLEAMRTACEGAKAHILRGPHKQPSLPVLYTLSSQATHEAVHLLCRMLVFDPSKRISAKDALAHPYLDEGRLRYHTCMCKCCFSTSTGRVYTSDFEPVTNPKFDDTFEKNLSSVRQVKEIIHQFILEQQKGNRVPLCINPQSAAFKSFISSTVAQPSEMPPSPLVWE

Chain of mTOR/FKBP12(h) (P42345 1362-2549 limits assumed): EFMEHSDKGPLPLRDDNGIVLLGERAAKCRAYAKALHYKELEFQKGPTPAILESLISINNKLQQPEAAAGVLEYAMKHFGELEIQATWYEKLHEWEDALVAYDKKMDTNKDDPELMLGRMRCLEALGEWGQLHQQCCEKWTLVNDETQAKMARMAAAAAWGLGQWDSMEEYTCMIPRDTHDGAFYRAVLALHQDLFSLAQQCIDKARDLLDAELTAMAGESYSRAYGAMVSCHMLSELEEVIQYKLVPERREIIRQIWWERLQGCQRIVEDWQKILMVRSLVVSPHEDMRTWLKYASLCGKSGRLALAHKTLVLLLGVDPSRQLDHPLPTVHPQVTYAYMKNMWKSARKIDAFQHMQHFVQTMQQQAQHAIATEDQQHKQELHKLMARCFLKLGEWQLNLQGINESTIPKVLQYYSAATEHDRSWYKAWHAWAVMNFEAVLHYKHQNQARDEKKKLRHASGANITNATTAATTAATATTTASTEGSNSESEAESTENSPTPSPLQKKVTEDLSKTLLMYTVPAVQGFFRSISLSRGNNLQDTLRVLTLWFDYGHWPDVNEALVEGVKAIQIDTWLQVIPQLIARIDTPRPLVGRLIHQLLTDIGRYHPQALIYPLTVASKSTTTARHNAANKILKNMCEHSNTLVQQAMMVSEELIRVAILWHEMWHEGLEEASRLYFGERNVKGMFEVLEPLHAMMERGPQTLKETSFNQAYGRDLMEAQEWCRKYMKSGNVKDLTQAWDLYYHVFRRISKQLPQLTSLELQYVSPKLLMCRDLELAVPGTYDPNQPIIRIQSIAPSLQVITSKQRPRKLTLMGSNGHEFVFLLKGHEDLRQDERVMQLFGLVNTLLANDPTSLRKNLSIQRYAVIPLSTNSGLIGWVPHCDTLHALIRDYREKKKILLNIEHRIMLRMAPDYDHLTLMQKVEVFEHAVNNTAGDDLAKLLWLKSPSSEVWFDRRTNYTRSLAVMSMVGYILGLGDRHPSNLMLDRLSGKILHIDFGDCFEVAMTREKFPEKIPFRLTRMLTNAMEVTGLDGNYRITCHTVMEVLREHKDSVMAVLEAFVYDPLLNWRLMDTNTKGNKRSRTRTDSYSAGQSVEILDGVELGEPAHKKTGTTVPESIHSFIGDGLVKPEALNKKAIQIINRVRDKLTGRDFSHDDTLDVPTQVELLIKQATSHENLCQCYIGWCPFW
Chain of MST3(h) (Q9Y6E0 whole entry): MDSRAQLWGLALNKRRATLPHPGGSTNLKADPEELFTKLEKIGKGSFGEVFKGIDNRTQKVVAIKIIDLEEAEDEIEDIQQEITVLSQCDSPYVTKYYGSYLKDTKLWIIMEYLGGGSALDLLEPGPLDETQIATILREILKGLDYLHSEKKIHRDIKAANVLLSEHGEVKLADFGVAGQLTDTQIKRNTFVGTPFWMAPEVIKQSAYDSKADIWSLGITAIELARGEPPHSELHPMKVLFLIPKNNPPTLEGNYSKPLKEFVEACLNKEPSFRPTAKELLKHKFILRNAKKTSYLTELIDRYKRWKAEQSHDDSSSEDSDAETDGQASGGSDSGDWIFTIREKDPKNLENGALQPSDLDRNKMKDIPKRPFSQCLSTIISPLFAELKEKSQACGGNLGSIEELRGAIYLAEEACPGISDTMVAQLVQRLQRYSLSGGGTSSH
Chain of WNK2(h) (Q9Y3S1 whole entry): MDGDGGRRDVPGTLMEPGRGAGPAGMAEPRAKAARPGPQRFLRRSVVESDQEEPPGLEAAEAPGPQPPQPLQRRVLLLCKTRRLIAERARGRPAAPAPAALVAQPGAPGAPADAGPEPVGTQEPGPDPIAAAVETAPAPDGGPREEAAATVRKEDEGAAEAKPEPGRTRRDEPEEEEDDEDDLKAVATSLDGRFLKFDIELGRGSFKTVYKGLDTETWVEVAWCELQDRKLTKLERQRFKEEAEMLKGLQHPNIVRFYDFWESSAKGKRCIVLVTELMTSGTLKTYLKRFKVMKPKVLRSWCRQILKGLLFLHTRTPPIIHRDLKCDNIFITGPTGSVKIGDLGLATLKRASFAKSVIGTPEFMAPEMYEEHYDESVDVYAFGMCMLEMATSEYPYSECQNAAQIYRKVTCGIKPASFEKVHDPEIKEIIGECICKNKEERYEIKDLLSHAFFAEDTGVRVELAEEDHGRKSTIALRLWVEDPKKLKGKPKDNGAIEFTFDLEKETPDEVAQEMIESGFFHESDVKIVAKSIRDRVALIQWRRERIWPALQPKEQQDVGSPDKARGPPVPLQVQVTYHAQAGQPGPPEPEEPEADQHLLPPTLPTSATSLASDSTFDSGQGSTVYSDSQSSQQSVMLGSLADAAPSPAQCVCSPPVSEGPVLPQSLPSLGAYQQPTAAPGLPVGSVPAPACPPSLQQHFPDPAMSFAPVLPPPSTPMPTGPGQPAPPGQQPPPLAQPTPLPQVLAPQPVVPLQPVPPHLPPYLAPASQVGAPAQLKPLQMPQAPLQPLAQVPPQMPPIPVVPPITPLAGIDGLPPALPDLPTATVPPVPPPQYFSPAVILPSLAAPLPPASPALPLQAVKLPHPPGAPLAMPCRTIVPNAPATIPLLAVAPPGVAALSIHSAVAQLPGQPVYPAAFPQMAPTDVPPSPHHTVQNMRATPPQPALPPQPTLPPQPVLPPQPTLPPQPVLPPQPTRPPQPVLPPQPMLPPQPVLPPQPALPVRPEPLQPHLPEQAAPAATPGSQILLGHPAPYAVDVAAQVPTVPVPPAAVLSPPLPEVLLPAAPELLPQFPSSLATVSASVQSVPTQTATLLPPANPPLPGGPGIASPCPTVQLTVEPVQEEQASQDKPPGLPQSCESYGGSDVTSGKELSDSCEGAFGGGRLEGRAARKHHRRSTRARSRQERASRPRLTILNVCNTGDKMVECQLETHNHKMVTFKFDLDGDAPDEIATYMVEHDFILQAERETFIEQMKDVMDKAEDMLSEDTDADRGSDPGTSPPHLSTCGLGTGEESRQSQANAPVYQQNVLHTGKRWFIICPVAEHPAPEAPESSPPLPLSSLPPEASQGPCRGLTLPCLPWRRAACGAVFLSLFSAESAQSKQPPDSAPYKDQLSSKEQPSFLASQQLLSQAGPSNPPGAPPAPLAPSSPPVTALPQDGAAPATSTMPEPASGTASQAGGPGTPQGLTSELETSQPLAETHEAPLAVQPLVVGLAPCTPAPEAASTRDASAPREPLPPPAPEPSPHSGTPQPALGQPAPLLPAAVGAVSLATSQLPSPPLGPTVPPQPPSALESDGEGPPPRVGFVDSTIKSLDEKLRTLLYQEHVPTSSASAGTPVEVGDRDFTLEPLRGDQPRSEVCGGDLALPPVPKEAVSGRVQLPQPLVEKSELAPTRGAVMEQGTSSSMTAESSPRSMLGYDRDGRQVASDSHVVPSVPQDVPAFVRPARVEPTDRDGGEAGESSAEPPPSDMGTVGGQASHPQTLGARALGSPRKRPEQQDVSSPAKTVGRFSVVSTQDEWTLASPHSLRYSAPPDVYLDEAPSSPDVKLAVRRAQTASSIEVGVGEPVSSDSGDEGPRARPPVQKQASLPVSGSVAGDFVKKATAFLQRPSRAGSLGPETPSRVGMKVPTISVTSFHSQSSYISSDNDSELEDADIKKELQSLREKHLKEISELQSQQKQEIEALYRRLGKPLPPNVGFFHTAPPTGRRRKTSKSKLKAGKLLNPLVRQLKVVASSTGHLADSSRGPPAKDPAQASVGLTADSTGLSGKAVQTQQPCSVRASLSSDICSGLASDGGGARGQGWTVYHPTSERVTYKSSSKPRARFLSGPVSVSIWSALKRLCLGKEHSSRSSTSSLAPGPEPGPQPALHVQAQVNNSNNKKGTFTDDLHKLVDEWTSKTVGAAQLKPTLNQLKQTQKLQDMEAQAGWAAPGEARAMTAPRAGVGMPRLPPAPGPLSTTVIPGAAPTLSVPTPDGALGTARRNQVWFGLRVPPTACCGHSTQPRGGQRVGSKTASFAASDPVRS

| Sequence | % activity (MST3(h)) | % activity (PKCι(h)) | % activity (CDK6/cyclinD3(h)) | % activity (CK2(h)) | % activity (mTOR/FKBP12(h)) | % activity (Fms(h)) | % activity (DRAK1(h)) | % activity (PKCα(h)) | % activity (SAPK3(h)) | % activity (MSK1(h)) | % activity (Met(D1246H)(h)) | % activity (EphA7(h)) | % activity (AMPKα1(h)) | % activity (Fms(Y969C)(h)) | % activity (WNK2(h)) | % activity (PKCη(h)) | % activity (NLK(h)) |
| --- | --- | --- | --- | --- | --- | --- | --- | --- | --- | --- | --- | --- | --- | --- | --- | --- | --- |
| YARAAARQARAKALNRQLGVA [MMI-0200] | 95% | 97% | 100% | 83% | 118% | 92% | 34% | 100% | 97% | 50% | 139% | 220% | 108% | 88% | 94% | 101% |  |
| KAFAKLAARLYRKALARQLGVAA [MMI-0400] | 36% | 46% | 85% | 101% | 125% | 37% | 14% | 86% | 79% | 28% | 68% | 222% | 87% | 91% | 54% | 98% | 90% |
| HRRIKAWLKKIKALARQLGVAA [MMI-0500] | 4% | 7% | 23% | 93% | 140% | 14% | 8% | 3% | 24% | 8% | 150% | 189% | 35% |  | 8% | 45% | 19% |
| FAKLAARLYRKALARQLGVAA [MMI-0300] | 45% | 68% | 86% | 90% | 145% | 45% | 14% | 89% | 84% | 32% | 125% | 159% | 71% | 72% | 64% |  | 87% |
